Reference: publication PMC10572825 (2023)

Biological target: Tenascin-C (Mus musculus, UniProt Q80YX1, FITC-labelled tenascin-C)
Experiment: isothermal fluorescence titration

Kd: 270 nM
B1: CCL26 (protein)
chain: TRGSDISKTCCFQYSHKPLPWTWVRSYEFTSNSCSQRAVIFTTKRGKKVCTHPRKKWVQKYISLLKTPKQL
